The source of these data is article PMC6379665 (Nucleic Acids Research, 2018).

Holding throughout (test): AUC
Experiment [1] addresses bacteriophage λ terminase protomer (TerL•TerS2), wild type (bacteriophage λ) (UniProt P03708).
Experiment [2] concerns the target T1, bacteriophage λ terminase large subunit TerL^λ, wild type (bacteriophage λ, UniProt P03708 1-641).
T1 sequence (looked up): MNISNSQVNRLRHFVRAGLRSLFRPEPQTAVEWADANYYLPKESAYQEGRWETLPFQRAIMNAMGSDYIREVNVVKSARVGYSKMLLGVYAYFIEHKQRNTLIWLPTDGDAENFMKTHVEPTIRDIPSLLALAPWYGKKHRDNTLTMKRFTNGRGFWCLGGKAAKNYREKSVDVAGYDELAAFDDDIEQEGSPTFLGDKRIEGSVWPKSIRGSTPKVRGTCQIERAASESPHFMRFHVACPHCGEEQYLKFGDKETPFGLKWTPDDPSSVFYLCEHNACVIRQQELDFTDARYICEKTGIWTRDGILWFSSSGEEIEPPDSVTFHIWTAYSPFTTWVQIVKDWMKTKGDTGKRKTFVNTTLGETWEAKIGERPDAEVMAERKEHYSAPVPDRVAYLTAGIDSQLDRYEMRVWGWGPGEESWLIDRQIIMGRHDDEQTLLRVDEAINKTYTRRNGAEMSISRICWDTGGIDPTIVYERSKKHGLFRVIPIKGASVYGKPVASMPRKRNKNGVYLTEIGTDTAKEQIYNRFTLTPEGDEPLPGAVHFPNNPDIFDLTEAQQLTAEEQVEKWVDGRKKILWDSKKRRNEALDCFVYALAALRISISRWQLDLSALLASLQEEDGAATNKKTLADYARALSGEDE

For experiment [3], the target named is T2, bacteriophage λ terminase large subunit TerL^λ-E179A (bacteriophage λ, UniProt P03708 1-641, E179A).
T2 sequence (looked up): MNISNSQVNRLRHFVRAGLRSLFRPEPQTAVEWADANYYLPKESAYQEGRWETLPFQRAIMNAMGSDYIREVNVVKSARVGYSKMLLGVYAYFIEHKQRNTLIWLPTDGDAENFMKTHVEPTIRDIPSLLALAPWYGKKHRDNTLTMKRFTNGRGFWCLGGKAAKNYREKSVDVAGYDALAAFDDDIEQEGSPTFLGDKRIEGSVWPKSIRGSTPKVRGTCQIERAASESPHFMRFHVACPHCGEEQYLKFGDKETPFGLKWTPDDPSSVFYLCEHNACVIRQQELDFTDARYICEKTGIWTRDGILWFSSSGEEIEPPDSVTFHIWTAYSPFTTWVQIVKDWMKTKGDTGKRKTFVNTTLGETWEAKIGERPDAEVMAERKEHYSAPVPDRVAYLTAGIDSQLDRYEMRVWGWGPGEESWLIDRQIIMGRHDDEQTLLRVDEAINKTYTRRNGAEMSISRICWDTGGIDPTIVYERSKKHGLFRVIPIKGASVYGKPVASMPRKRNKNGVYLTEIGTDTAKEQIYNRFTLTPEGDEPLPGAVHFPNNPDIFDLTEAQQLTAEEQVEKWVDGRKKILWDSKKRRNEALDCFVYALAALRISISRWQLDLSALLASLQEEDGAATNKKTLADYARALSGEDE

For experiment [4], the target named is T3, bacteriophage λ terminase large subunit TerL^λ-E179Q (bacteriophage λ, UniProt P03708 1-641, E179Q).
T3 sequence (looked up): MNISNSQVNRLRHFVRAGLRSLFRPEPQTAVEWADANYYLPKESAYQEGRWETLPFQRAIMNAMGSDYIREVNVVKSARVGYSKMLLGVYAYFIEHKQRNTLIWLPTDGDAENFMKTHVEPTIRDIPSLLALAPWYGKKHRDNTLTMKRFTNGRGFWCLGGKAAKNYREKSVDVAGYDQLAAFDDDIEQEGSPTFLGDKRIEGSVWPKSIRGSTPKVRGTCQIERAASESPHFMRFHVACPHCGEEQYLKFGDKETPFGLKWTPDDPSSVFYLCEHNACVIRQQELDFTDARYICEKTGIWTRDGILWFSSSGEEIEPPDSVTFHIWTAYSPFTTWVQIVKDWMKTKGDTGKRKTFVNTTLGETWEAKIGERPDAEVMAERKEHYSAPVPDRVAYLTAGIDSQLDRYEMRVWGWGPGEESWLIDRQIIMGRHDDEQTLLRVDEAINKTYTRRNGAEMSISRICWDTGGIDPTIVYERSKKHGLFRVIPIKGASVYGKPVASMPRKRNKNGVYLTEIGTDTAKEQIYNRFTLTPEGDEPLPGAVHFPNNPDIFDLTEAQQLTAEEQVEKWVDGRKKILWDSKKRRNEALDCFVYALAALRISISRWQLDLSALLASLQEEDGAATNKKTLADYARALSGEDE

The term stoichiometry N denotes a count of units in the complex or per binding partner. The molecule “bacteriophage λ terminase protomer (TerL•TerS2), wild type (from UniProt P03708 1-641; P03707 1-181) (complex)” yielded a stoichiometry N in experiment [1] of 4.

B1: bacteriophage λ terminase small subunit TerS (natural protein, UniProt P03707 1-181, looked up)
chain: MEVNKKQLADIFGASIRTIQNWQEQGMPVLRGGGKGNEVLYDSAAVIKWYAERDAEIENEKLRREVEELRQASEADLQPGTIEYERHRLTRAQADAQELKNARDSAEVVETAFCTFVLSRIAGEIASILDGLPLSVQRRFPELENRHVDFLKRDIIKAMNKAAALDELIPGLLSEYIEQSG
Take B1: the binding result in experiment [2], in experiment [3] and in experiment [4] was “binds” each time.
